From US20250020634A1 come the findings set out here.

For the experiment, the target named is NaV1.5-V5 (cardiac voltage-gated sodium channel alpha subunit, SCN5A). Put plainly: cell-based or functional assay.

Consider “rat β1-V5-6×HIS (sodium channel beta-1 subunit, SCN1B) (from UniProt Q00954 19-218)”, for which the GV ΔV1/2 (mV), whole-cell patch clamp, BeHAPe cells, NaV1.5 + β1 came to 6.7 mV; the GV ΔV1/2 (mV), whole-cell patch clamp, eHAP cells, NaV1.5 + β1 came out at 0.2 mV; the SSI ΔV1/2 (mV), whole-cell patch clamp, BeHAPe cells, NaV1.5 + β1 worked out at 8.8 mV; the SSI ΔV1/2 (mV), whole-cell patch clamp, eHAP cells, NaV1.5 + β1 worked out at 3.2 mV. Also, the shift of GV V1/2 (fit to mean values, FIG. 5A), BeHAPe cells is 7.5 mV; the shift of SSI V1/2 (fit to mean values, FIG. 5A), BeHAPe cells was determined as 7.5 mV; the Δτ inactivation at V1/2 (ms), whole-cell patch clamp, BeHAPe cells, NaV1.5 + β1 is -1.7 ms; the Δτ inactivation at V1/2 (ms), whole-cell patch clamp, eHAP cells, NaV1.5 + β1 is -0.3 ms.

As to “rat β2-HA (sodium channel beta-2 subunit, SCN2B) (from UniProt P54900 30-215)”, the GV ΔV1/2 (mV), whole-cell patch clamp, BeHAPe cells, NaV1.5 + β2 is -2.5 mV; the SSI ΔV1/2 (mV), whole-cell patch clamp, BeHAPe cells, NaV1.5 + β2 was -9.9 mV; the shift of SSI V1/2 (fit to mean values, FIG. 5B), BeHAPe cells is -5.9 mV; the Δτ inactivation at V1/2 (ms), whole-cell patch clamp, BeHAPe cells, NaV1.5 + β2 was -0.5 ms.

For the molecule “β1 & β2 (rat β1-V5-6×HIS and rat β2-HA simultaneously co-expressed) (from UniProt Q00954 19-157; P54900 30-157)”, the GV ΔV1/2 (mV), whole-cell patch clamp, BeHAPe cells, NaV1.5 + β1 & β2 was found to be 7.9 mV; the SSI ΔV1/2 (mV), whole-cell patch clamp, BeHAPe cells, NaV1.5 + β1 & β2 came to 9.1 mV; the shift of GV V1/2 (fit to mean values, FIG. 5E), BeHAPe cells stood at 9.3 mV; the shift of SSI V1/2 (fit to mean values, FIG. 5E), BeHAPe cells was found to be 13.4 mV. Moreover, the Δτ inactivation at V1/2 (ms), whole-cell patch clamp, BeHAPe cells, NaV1.5 + β1 & β2 was found to be 0 ms.

B1: human β3 (sodium channel beta-3 subunit, SCN3B) (protein, UniProt Q9NY72 23-215, looked up)
chain: FPVCVEVPSETEAVQGNPMKLRCISCMKREEVEATTVVEWFYRPEGGKDFLIYEYRNGHQEVESPFQGRLQWNGSKDLQDVSITVLNVTLNDSGLYTCNVSREFEFEAHRPFVKTTRLIPLRVTEEAGEDFTSVVSEIMMYILLVFLTLWLLIEMIYCYRKVSKAEEAAQENASDYLAIPSENKENSAVPVEE
As for B1, the GV ΔV1/2 (mV), whole-cell patch clamp, BeHAPe cells, NaV1.5 + β3 was 8.8 mV; the SSI ΔV1/2 (mV), whole-cell patch clamp, BeHAPe cells, NaV1.5 + β3 was determined as 9.1 mV; the shift of GV V1/2 (fit to mean values, FIG. 5C), BeHAPe cells came to 7.4 mV; the shift of SSI V1/2 (fit to mean values, FIG. 5C), BeHAPe cells was 9.4 mV. Moreover, the Δτ inactivation at V1/2 (ms), whole-cell patch clamp, BeHAPe cells, NaV1.5 + β3 was determined as 0.4 ms.

B2: human β4 (sodium channel beta-4 subunit, SCN4B) (protein, UniProt Q8IWT1 31-228, looked up)
chain: LEVSVGKATDIYAVNGTEILLPCTFSSCFGFEDLHFRWTYNSSDAFKILIEGTVKNEKSDPKVTLKDDDRITLVGSTKEKMNNISIVLRDLEFSDTGKYTCHVKNPKENNLQHHATIFLQVVDRLEEVDNTVTLIILAVVGGVIGLLILILLIKKLIIFILKKTREKKKECLVSSSGNDNTENGLPGSKAEEKPPSKV
On to B2, for which the GV ΔV1/2 (mV), whole-cell patch clamp, BeHAPe cells, NaV1.5 + β4 is 5.2 mV; the SSI ΔV1/2 (mV), whole-cell patch clamp, BeHAPe cells, NaV1.5 + β4 was determined as 2.4 mV; the shift of GV V1/2 (fit to mean values, FIG. 5D), BeHAPe cells is 6.1 mV; the Δτ inactivation at V1/2 (ms), whole-cell patch clamp, BeHAPe cells, NaV1.5 + β4 turned out to be 0.5 ms.

B3: Myelin protein zero (MPZ) (protein, UniProt P25189 1-248, looked up, species assumed)
chain: MAPGAPSSSPSPILAVLLFSSLVLSPAQAIVVYTDREVHGAVGSRVTLHCSFWSSEWVSDDISFTWRYQPEGGRDAISIFHYAKGQPYIDEVGTFKERIQWVGDPRWKDGSIVIHNLDYSDNGTFTCDVKNPPDIVGKTSQVTLYVFEKVPTRYGVVLGAVIGGVLGVVLLLLLLFYVVRYCWLRRQAALQRRLSAMEKGKLHKPGKDASKRGRQTPVLYAMLDHSRSTKAVSEKKAKGLGESRKDKK
modifications: full-length
In the case of B3, the GV ΔV1/2 (mV), whole-cell patch clamp, BeHAPe cells, NaV1.5 + MPZ came out at 8.7 mV; the SSI ΔV1/2 (mV), whole-cell patch clamp, BeHAPe cells, NaV1.5 + MPZ was found to be 6.3 mV; the shift of GV V1/2 (fit to mean values, FIG. 5F), BeHAPe cells amounted to 7.4 mV; the shift of SSI V1/2 (fit to mean values, FIG. 5F), BeHAPe cells was 6.9 mV. For the same molecule, the Δτ inactivation at V1/2 (ms), whole-cell patch clamp, BeHAPe cells, NaV1.5 + MPZ stood at 0.2 ms.
